Experimental data: publication PMC3409183
pKd: −log10 of the molar value.

Test system: ribosomal protein L5 (TbL5) (Trypanosoma brucei)
Experiment: EMSA
Conditions: EMSA: 10 mM Tris-HCl pH 7.4, 150 mM KCl, 0.1 mM DTT, 0.1 mM EDTA, 0.1% NP-40, 20 min room temperature; filter binding: 10 mM Tris pH 7.4, 1 mM EDTA, 100 mM …

T. brucei 5S rRNA
pKd: 7.92
